# ± gives the uncertainty stated by the source.
# Experiment: abundance fitness (aPCA) (normalised: wild type 0, dead -1); higher = more abundant; growth selection in yeast, the domain comes from the species named
# Conditions: Homo sapiens
row,Substance,abundance fitness
1,"Lipoamide acyltransferase component of branched-chain alpha-keto acid dehydrogenase complex, mitochondrial A173R, P11182",-0.608 ± 0.04
2,"Nanos homolog 2 S77R, P60321",-0.003 ± 0.069
3,"Lipoamide acyltransferase component of branched-chain alpha-keto acid dehydrogenase complex, mitochondrial D197L, P11182",-0.337 ± 0.055
4,"Lipoamide acyltransferase component of branched-chain alpha-keto acid dehydrogenase complex, mitochondrial Q212D, P11182",-0.009 ± 0.13
5,"Lipoamide acyltransferase component of branched-chain alpha-keto acid dehydrogenase complex, mitochondrial R199W, P11182",-0.117 ± 0.046
6,"Lipoamide acyltransferase component of branched-chain alpha-keto acid dehydrogenase complex, mitochondrial E203M, P11182",-0.127 ± 0.06
7,"Lipoamide acyltransferase component of branched-chain alpha-keto acid dehydrogenase complex, mitochondrial V177E, P11182",-0.385 ± 0.049
8,"Lipoamide acyltransferase component of branched-chain alpha-keto acid dehydrogenase complex, mitochondrial N207E, P11182",-0.043 ± 0.047
9,"Lipoamide acyltransferase component of branched-chain alpha-keto acid dehydrogenase complex, mitochondrial K196F, P11182",-0.408 ± 0.062
10,"Lipoamide acyltransferase component of branched-chain alpha-keto acid dehydrogenase complex, mitochondrial G198S, P11182",-0.412 ± 0.04
11,"Lipoamide acyltransferase component of branched-chain alpha-keto acid dehydrogenase complex, mitochondrial R178H, P11182",-0.1 ± 0.072
12,"Lipoamide acyltransferase component of branched-chain alpha-keto acid dehydrogenase complex, mitochondrial L180F, P11182",-0.027 ± 0.095
13,"Lipoamide acyltransferase component of branched-chain alpha-keto acid dehydrogenase complex, mitochondrial V191N, P11182",-0.699 ± 0.23
14,"Lipoamide acyltransferase component of branched-chain alpha-keto acid dehydrogenase complex, mitochondrial G193I, P11182",-0.951 ± 0.12
15,"Lipoamide acyltransferase component of branched-chain alpha-keto acid dehydrogenase complex, mitochondrial G214N, P11182",-0.41 ± 0.18
16,"Lipoamide acyltransferase component of branched-chain alpha-keto acid dehydrogenase complex, mitochondrial D204R, P11182",-1.07 ± 0.047
17,"Lipoamide acyltransferase component of branched-chain alpha-keto acid dehydrogenase complex, mitochondrial I186L, P11182",-0.32 ± 0.057
18,"Lipoamide acyltransferase component of branched-chain alpha-keto acid dehydrogenase complex, mitochondrial G214K, P11182",0.129 ± 0.076

row,Substance,abundance fitness
1,"Lipoamide acyltransferase component of branched-chain alpha-keto acid dehydrogenase complex, mitochondrial T174E, P11182",-0.389 ± 0.053
2,"Lipoamide acyltransferase component of branched-chain alpha-keto acid dehydrogenase complex, mitochondrial L206V, P11182",-0.026 ± 0.043
3,"Lipoamide acyltransferase component of branched-chain alpha-keto acid dehydrogenase complex, mitochondrial R179D, P11182",-0.228 ± 0.11
4,"Lipoamide acyltransferase component of branched-chain alpha-keto acid dehydrogenase complex, mitochondrial I205A, P11182",-0.356 ± 0.041
5,"Lipoamide acyltransferase component of branched-chain alpha-keto acid dehydrogenase complex, mitochondrial E190P, P11182",-0.963 ± 0.081
6,"Lipoamide acyltransferase component of branched-chain alpha-keto acid dehydrogenase complex, mitochondrial V177H, P11182",-0.547 ± 0.15
7,"Lipoamide acyltransferase component of branched-chain alpha-keto acid dehydrogenase complex, mitochondrial T171Q, P11182",-0.391 ± 0.09
8,"Lipoamide acyltransferase component of branched-chain alpha-keto acid dehydrogenase complex, mitochondrial V192R, P11182",-0.027 ± 0.038
9,"Lipoamide acyltransferase component of branched-chain alpha-keto acid dehydrogenase complex, mitochondrial S189R, P11182",-0.09 ± 0.039
10,"Lipoamide acyltransferase component of branched-chain alpha-keto acid dehydrogenase complex, mitochondrial G214A, P11182",0.014 ± 0.054
11,"Lipoamide acyltransferase component of branched-chain alpha-keto acid dehydrogenase complex, mitochondrial G193W, P11182",-1.06 ± 0.18
12,"Lipoamide acyltransferase component of branched-chain alpha-keto acid dehydrogenase complex, mitochondrial A176H, P11182",-0.128 ± 0.06
13,"Lipoamide acyltransferase component of branched-chain alpha-keto acid dehydrogenase complex, mitochondrial K211G, P11182",0.007 ± 0.037
14,"Lipoamide acyltransferase component of branched-chain alpha-keto acid dehydrogenase complex, mitochondrial I200D, P11182",-0.567 ± 0.21
15,"Lipoamide acyltransferase component of branched-chain alpha-keto acid dehydrogenase complex, mitochondrial N185D, P11182",-0.178 ± 0.092
16,"Lipoamide acyltransferase component of branched-chain alpha-keto acid dehydrogenase complex, mitochondrial R179L, P11182",-0.083 ± 0.042
17,"Lipoamide acyltransferase component of branched-chain alpha-keto acid dehydrogenase complex, mitochondrial I186W, P11182",-1.05 ± 0.094
